Experiments:
Arabidopsis = assay: dgt-28 as a selectable marker with glyphosate selection; format: in vivo, Arabidopsis thaliana; conditions: 26.25-1680 g ae/ha glyphosate applied 7 and 11 DAP
Method: The use of dgt-28 as a selectable marker for glyphosate selection agent is tested with the Arabidopsis transformed plants described above. Approximately 50 T4 generation Arabidopsis seed (homozygous for dgt-28) are spiked into approximately 5,000 wildtype (sensitive to glyphosate) seed. The seeds are germinated and plantlets are sprayed with a selecting dose of glyphosate. Several treatments of glyphosate are compared; each tray of plants receives either one or two application timings of glyphosate in one of the following treatment schemes: 7 DAP (days after planting), 11 DAP, or 7 followed by 11 DAP. Since all plants also contain a glufosinate resistance gene in the same transformation vector, dgt-28 containing plants selected with glyphosate can be directly compared to DSM-2 or pat containing plants selected with glufosinate.
Glyphosate treatments are applied with a DeVilbiss™ spray tip as previously described. Transgenic plants containing dgt-28 are identified as “resistant” or “sensitive” 17 DAP. […] Sensitive and resistant plants are counted and the number of glyphosate tolerant plants is found to correlate with the original number of transgenic seed containing the dgt-28 transgene which are planted.

rice = assay: Postemergence glyphosate tolerance of dgt-28 rice (T0, T1); format: in vivo, Oryza sativa; conditions: following 560 g ae/ha glyphosate used for selection
Method: Transplanted rice transformants produced via Agrobacterium transformation were transplanted into media and acclimated to greenhouse conditions. […] Selected T0 events from construct pDAB110828 were treated with 2240 g ae/ha DURANGO DMA™ as previously described and assessed 7 and 14 days after treatment. […] All PCR positive plants were allowed to produce T1 seed for further characterization.
(§1) T1 resistant plants from each event used in the progeny testing were given unique identifiers and sampled for zygosity analyses of the dgt-28 gene. Zygosity data were used to assign 2 hemizygous and 2 homozygous replicates to each rate of glyphosate applied allowing for a total of 4 replicates per treatment. These plants were compared against wildtype kitaake rice. All plants were sprayed with a track sprayer set at 187 L/ha. The plants were sprayed from a range of 560-2240 g ae/ha DURANGO DMA™. All applications were formulated in water with the addition of 2% w/v ammonium sulfate (AMS). Plants were evaluated at 7 and 14 days after treatment. Plants were assigned an injury rating with respect to overall visual stunting, chlorosis, and necrosis. The T1 generation is segregating, so some variable response is expected due to difference in zygosity.

[1] = system: Zea mays hybrid 4XP811/B104; assay: Glyphosate tolerance of dgt-28 corn under field conditions; format: in vivo; conditions: corn under field conditions through the reproductive growth stages
Description: Single copy T1 events were sent to a field location to create both hybrid hemizygous and inbred homozygous seed for additional characterization. Hybrid seeds were created by crossing T1 events in the maize transformation line B104 to the inbred line 4XP811 generating hybrid populations segregating 1:1 (hemizygous:null) for the event. The resulting seeds were shipped to 2 separate locations. A total of five single copy events per construct were planted at each location in a randomized complete block design in triplicate. The fields were designed for glyphosate applications to occur at the V4 growth stage and a separate grouping of plants to be applied at the V8 growth stage. The 4XP811/B104 conventional hybrid was used as a negative control.
Experimental rows were treated with 184 g ae/ha ASSURE II™ (106 g ai/L quizalofop-methyl) to eliminate null segregants. All experimental entries segregated 1:1 (sensitive:resistant) (p=0.05) with respect to the ASSURE II™ application. Selected resistant plants were sampled from each event for quantification of the DGT-28 protein by standard ELISA.
Quizalofop-methyl resistant plants were treated with the commercial herbicide DURANGO DMA™ (480 g ae/L glyphosate) with the addition of 2.5% w/v ammonium-sulfate at either the V4 or V8 growth stages. […]

[2] = system: tobacco (cv. Petit Havana); assay: Postemergence glyphosate tolerance of dgt-28 tobacco (T1, T2); format: in vivo; conditions: tobacco through two generations
Description: as §1, with “Petite havana tobacco.” for “kitaake rice.”, “560-4480” for “560-2240”
Rates of DURANGO DMA™ ranging from 420-3360 g ae/ha glyphosate were applied to 2-3 leaf tobacco as previously described.

Zea mays B104 = assay: Post-emergence glyphosate tolerance of dgt-28 T0 corn (greenhouse); format: in vivo; conditions: T0 dgt-28 corn plants
Method: Zea mays dgt-28 transformation events (T0) were allowed to acclimate in the greenhouse and were grown until plants had transitioned from tissue culture to greenhouse growing conditions (i.e., 2-4 new, normal looking leaves had emerged from the whorl). Plants were grown at 27° C. under 16 hour light:8 hour dark conditions in the greenhouse. The plants were then treated with commercial formulations of DURANGO DMA™ (containing the herbicide glyphosate) with the addition of 2% w/v ammonium-sulfate. Herbicide applications were made with a track sprayer at a spray volume of 187 L/ha, 50-cm spray height. T0 plants were sprayed with a range of glyphosate from 280-4480 g ae/ha glyphosate, which is capable of significant injury to untransformed corn lines. A lethal dose is defined as the rate that causes >95% injury to the B104 inbred.
T0 events of dgt-28 linked with TraP4, TraP5, TraP8 and TraP23 were generated by Agrobacterium transformation and were allowed to acclimate under controlled growth chamber conditions until 2-4 new, normal looking leaves had emerged from the whorl. Plants were assigned individual identification numbers and sampled for copy number analyses of both dgt-28 and aad-1. Based on copy number analyses, plants were selected for protein expression analyses. Plants were transplanted into larger pots with new growing media and grown at 27° C. under 16 hour light:8 hour dark conditions in the greenhouse. Remaining plants that were not sampled for protein expression were then treated with commercial formulations of DURANGO DMA™ (glyphosate) with the addition of 2% w/v ammonium-sulfate. Treatments were distributed so that each grouping of plants contained T0 events of varying copy number. Herbicide applications were made with a track sprayer at a spray volume of 187 L/ha, 50-cm spray height. T0 plants were sprayed with a range of glyphosate from 280-4480 g ae/ha glyphosate capable of significant injury to untransformed corn lines. A lethal dose is defined as the rate that causes >95% injury to the B104 inbred. B104 was the genetic background of the transformants.

B1: DGT-28: EPSP synthase (GENBANK ZP_06917240.1) from Streptomyces sviceus ATCC29083; glyphosate tolerance gene and protein (protein)
chain: MRGMPALSLPGSKSITARALFLAAAADGVTTLVRPLRSDDTEGFAEGLVRLGYRVGRTPDTWQVDGRPQGPAVAEADVYCRDGATTARFLPTLAAAGHGTYRFDASPQMRRRPLLPLSRALRDLGVDLRHEEAEGHHPLTVRAAGVEGGEVTLDAGQSSQYLTALLLLGPLTRQGLRIRVTDLVSAPYVEITLAMMRAFGVEVAREGDVFVVPPGGYRATTYAIEPDASTASYFFAAAALTPGAEVTVPGLGTGALQGDLGFVDVLRRMGAEVSVGADATTVRGTGELRGLTANMRDISDTMPTLAAIAPFASAPVRIEDVANTRVKECDRLEACAENLRRLGVRVATGPDWIEIHPGPATGAQVTSYGDHRIVMSFAVTGLRVPGISFDDPGCVRKTFPGFHEAFAELRRGIGS
Arabidopsis
  selection for transgenic Arabidopsis plants with glyphosate: effective selection
rice
  glyphosate rate up to which tolerance was shown: up to 2240 g ae/ha
[1]
  glyphosate rate up to which robust tolerance was shown: up to 4480 g ae/ha
[2]
  glyphosate rate up to which robust tolerance was shown: up to 3360 g ae/ha
Zea mays B104
  glyphosate rate up to which tolerance was achieved: up to 4480 g ae/ha

Source: US9540654B2, “Synthetic brassica-derived chloroplast transit peptides” (Dow AgroSciences LLC, priority 2012, dated 2017)
